Values of other authors as cited in publication PMC7614842.
pKd: −log10 of the molar value.

Biological target: C3d C3d (Mus musculus) (UniProt P01027)
Chain of UniProt P01027 (P01027 1002-1303): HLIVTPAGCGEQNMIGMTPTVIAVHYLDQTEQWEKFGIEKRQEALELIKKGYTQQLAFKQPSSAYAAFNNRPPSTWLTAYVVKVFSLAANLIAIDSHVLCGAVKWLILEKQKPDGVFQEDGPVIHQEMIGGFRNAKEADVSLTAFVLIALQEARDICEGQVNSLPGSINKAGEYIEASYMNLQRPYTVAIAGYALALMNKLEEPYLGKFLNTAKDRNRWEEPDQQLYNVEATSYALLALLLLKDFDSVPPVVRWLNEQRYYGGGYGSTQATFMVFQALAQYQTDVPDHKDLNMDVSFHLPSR

- pKd: 6.85
Substance: CR2 (from UniProt P19070)
